Results on 1 molecule are retold here after PMC8240452.

What is called Kd is the free concentration of one partner at which half of the binding sites on the other are occupied at equilibrium, for simple one-to-one binding. A low value points to higher affinity.

The series deals with SARS-CoV-2 spike receptor-binding domain (RBD) (SARS-CoV-2, UniProt P0DTC2 319-541). Kind of series: 40 min incubation, immobilized aptamer.

B1: SARS-CoV-2 RBD aptamer, amine-terminated (ssDNA)
DNA: CAGCACCGACCTTGTGCTTTGGGAGTGCTGGTCCAAGGGCGTTAATGGACA
modifications: 5'-NH2-(CH2)6
The molecule B1 returned a Kd of 3.4 nM.
